In patent US20250346646A1, “COMPOUNDS USEFUL TO TREAT METABOLIC DISORDERS” (President and Fellows of Harvard College, priority 2016, published 2025):

Assays:
[1] = test system: diet induced obese (DIO) mice; experiment: Antibody treatment of obese mice on high-fat diet (fasting glucose, GTT, ITT); type: in vivo, mouse; settings: obese mice on HFD
Method: FIG. 9B is bar graph showing blood glucose levels (mg/dL) at week 0 (open bars) or week 4 (solid bars) in obese mice on a high-fat diet (HFD) treated with vehicle or anti-aP2 monoclonal antibodies CA33, CA13, CA15, CA23, or H3. Blood glucose levels were measured after 6 hours of day-time food withdrawal. *p<0.05, **p<0.01.
The test was performed after 2 weeks of treatment in obese mice on HFD with vehicle (diamonds) or anti-aP2 monoclonal antibodies (0.75 g/kg glucose)(CA33; squares)(CA15; triangles). *p<0.05.
FIG. 12A is a line graph showing glucose levels (mg/dL) vs. time (minutes) in a glucose tolerance test (GTT) following two weeks of selective antibody treatment using high affinity antibodies (CA13, CA15, CA23, and H3) versus vehicle control in high fat diet fed mice.
FIG. 12B is a line graph showing glucose levels (mg/dl) vs. time (minutes) in an insulin tolerance test (ITT) following three weeks of selective antibody treatment using high affinity antibodies (CA13, CA15, CA23, and H3) versus vehicle control in high fat diet fed mice.
Animal care and experimental procedures were performed with approval from animal care committees of Harvard University. Male mice (leptin-deficient (ob/ob) and diet induced obese (DIO) mice with C57BL/6J background) were purchased from The Jackson Laboratory (Bar Harbor, ME) and kept on a 12-hour light/dark cycle. […] Body weights were measured weekly in the fed state. Blood glucose levels were measured weekly after 6 hours of food withdrawal or after 16 hours overnight fast. […]
Twenty-four hours post transfection a bolus feed was added and the temperature was reduced to 32° C. and maintained for the duration of the culture period (12-14 days). […] The UV absorbance peak at A280 nm was collected during elution from the column using 0.1M sodium citrate pH 3.4 elution buffer and then neutralized to pH 7.4 by addition of 2M Tris-HCl pH 8.5. […]

human glucagon receptor = human glucagon receptor (Homo sapiens, UniProt P47871); experiment: cAMP-response element luciferase reporter in CHO-K1 cells expressing human GCGR-GFP; type: cell-based; settings: 1 ug/ml aP2, 25 nM glucagon, 20 μg/ml antibody; 4 hours post stimulation
Sequence of human glucagon receptor (P47871 26-477): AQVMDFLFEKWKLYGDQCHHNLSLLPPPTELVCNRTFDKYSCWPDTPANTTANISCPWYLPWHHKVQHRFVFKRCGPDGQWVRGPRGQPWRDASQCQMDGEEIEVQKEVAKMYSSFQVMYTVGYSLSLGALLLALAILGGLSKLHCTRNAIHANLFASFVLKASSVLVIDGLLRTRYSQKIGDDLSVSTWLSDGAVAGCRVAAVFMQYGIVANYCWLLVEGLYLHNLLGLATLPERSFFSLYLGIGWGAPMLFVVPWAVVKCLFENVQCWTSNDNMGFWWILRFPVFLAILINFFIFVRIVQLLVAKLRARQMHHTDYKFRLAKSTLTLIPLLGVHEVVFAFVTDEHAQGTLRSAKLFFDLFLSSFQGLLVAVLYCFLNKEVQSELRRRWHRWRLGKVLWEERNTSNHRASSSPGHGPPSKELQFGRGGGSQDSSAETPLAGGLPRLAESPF
Method: Bar graphs represent mean±standard deviation (s.d.), n=4-5 per group. *P<0.05, **P<0.01, ***P≤0.001, ****P≤0.0001, ns P>0.05. Multiple group comparisons were done using one-way ANOVA statistics with Tukey post-test correction. Graphs show data as mean±standard error of mean (s.e.m.), analyzed using two-way ANOVA.
During cloning hexahistadine and WELQ protease site was added for protein purification. Murine aP2 gene was cloned into pet21+ vector after the hexahistadine tag and TEV protease site for ease of purification.
Plasmids were transfected using Lipofectamine (Invitrogen) according to manufacturer's instructions. Transiently transfected cells were grown in appropriate selection antibiotics where applicable for stable cell line generation. Following three passages under selection media, single cell colonies were picked and expanded for experimentation after validation.

[2] = test system: HFD-induced obese aP2−/− mice; experiment: CA33 treatment of HFD-induced obese aP2−/− mice; type: in vivo, mouse
Method: FIG. 11A is a bar graph showing fasting blood glucose (mg/dL) in HFD-induced obese aP2−/− mice before (open bars) and after CA33 antibody or vehicle treatment for three weeks (solid bars).
The test was performed after 2 weeks of vehicle (triangles) or CA33 antibody treatment (squares) in aP2−/− mice.
Animal care and experimental procedures were performed with approval from animal care committees of Harvard University. Male mice (leptin-deficient (ob/ob) and diet induced obese (DIO) mice with C57BL/6J background) were purchased from The Jackson Laboratory (Bar Harbor, ME) and kept on a 12-hour light/dark cycle. DIO mice with C57BL/6J background were maintained on high-fat diet (60% kcal fat, Research Diets, Inc., D12492i) for 12 to 15 weeks before starting treatment except in clamp studies, for which they were on HFD for 20 weeks. Leptin-deficient (ob/ob) mice were maintained on regular chow diet (RD, PicoLab 5058 Lab Diet). Animals used were 18 to 31 weeks of age for dietary models and 9 to 12 weeks of age for the ob/ob model. In all experiments, at least 7 mice in each group were used, unless otherwise stated in the text. The mice were treated with 150 μl PBS (vehicle) or 1.5 mg/mouse (˜33 mg/kg) anti-aP2 monoclonal antibody in 150 μl PBS by twice weekly subcutaneous injections for 3 to 5 weeks. Before and after the treatment, blood samples were collected from the tail after 6 hours of daytime food withdrawal. Body weights were measured weekly in the fed state. Blood glucose levels were measured weekly after 6 hours of food withdrawal or after 16 hours overnight fast. After 2 weeks of treatment, glucose tolerance tests were performed by intraperitoneal glucose injections (0.75 g/kg for DIO, 0.5 g/kg for ob/ob mice). After 3 weeks of treatment, insulin tolerance tests were performed in DIO mice by intraperitoneal insulin injections (0.75 IU/kg). After 5 weeks of treatment, hyperinsulinemic-euglycemic clamp experiments were performed in DIO mice as previously described (Furuhashi et al., (2007) Nature 447, 959-965; Maeda et al., (2005) Cell metabolism 1, 107-119). […]

glucagon/aP2 complex = glucagon/aP2 complex (Homo sapiens, UniProt P01275+P15090); experiment: Blitz binding to tethered aP2 in glucagon plus mAb solution; settings: biotinylated aP2 on streptavidin probes
Sequence of glucagon/aP2 complex (P15090 whole entry): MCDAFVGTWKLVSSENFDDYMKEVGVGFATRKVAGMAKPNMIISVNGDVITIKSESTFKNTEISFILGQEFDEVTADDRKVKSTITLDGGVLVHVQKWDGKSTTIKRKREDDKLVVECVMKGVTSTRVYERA
Sequence of glucagon/aP2 complex (P01275 53-81 limits assumed): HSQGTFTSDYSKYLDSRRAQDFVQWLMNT
Method: Binding affinity studies were performed using a Blitz instrument (Pall Life Sciences, Menlo Park, CA). Biotinylated aP2 was attached to streptavidin probes.

Binding to the glucagon/aP2 complex (glucagon/aP2 complex): strong binding
B1: CA33: low-affinity anti-aP2 monoclonal antibody, rabbit-mouse hybrid, produced and purified by UCB; VL Seq. ID 28, VH Seq. ID 41 (antibody, V domains shown)
VH: QSVEESGGRLVTPGTPLTLTCTVSGFSLSTYYMSWVRQAPGKGLEWIGIIYPSGSTYCASWAKGRFTISKASTTVDLKITSPTTEDTATYFCARPDNDGTSGYLSGFGLWGQGTLVTVSS
VL: DVVMTQTPASVSEPVGGTVTIKCQASEDISRYLVWYQQKPGQPPKRLIYKASTLASGVPSRFKGSGSGTDFTLTISDLECDDAATYYCQCTYGTYAGSFFYSFGGGTEVVVE
modifications: Rabbit Ab 909 VH region; Rabbit Ab 909 VL-region
Fasting blood glucose ([1]; 33 mg/kg s.c. twice weekly, week 4 vs week 0, 6 hours food withdrawal): significantly decreased | Glucose tolerance (GTT) ([1]; after 2 weeks of treatment, 0.75 g/kg glucose): significantly improved glucose tolerance | Insulin sensitivity (insulin tolerance test) ([1]; after 3 weeks of treatment): markedly improved insulin sensitivity | Effect on glucagon potentiation by aP2 (cAMP response, luminescence) (human glucagon receptor): blocks the glucagon potentiation effect of aP2 | Weight ([2]; aP2−/− mice fed a HFD): failed to induce any change | Fasting glucose ([2]; aP2−/− mice fed a HFD, three weeks treatment): failed to induce any change | Glucose tolerance (GTT) ([2]; obese aP2−/− mice, after 2 weeks of treatment): did not affect glucose tolerance
